The target in this assay is T1, human RetL2 (insert of clone DSW240) expressed on 293/EBNA cells (human, UniProt O00451 22-444).
T1 construct: no cleavage sites are stated; also called retL2 expression plasmid
T1 sequence: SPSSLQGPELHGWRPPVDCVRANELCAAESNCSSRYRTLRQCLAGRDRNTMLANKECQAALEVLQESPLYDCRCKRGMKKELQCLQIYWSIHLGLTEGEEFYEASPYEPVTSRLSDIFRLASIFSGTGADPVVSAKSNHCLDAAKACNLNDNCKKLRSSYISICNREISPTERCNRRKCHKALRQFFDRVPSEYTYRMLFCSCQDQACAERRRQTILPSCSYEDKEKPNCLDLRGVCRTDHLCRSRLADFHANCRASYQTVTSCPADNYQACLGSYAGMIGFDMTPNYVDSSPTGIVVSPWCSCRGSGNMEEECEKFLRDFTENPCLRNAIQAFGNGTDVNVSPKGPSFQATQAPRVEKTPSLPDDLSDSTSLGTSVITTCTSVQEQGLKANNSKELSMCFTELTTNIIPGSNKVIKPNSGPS
As to the kind of experiment: staining of 293/EBNA cells transfected with the insert of clone DSW240. How it is done: Plasmid DNAs (the retL2 expression plasmid, a retL1 expression plasmid for a positive control, and an expression plasmid containing an unrelated protein for a negative control) are transfected into 293/EBNA cells (8 ×10^5 on a 60 mm plate) using the lipofection method. After 48 hr, the cells are washed two times with HBHA buffer (0.5 mg/ml BSA, 0.1% NaN_3, 20 mM HEPES (pH 7.0)) and incubated with 20 ug/ml rat Ret/IgG in Tris-buffered saline plus 1 mM MgCl_2 and CaCl_2 for 60–90 min at room temperature. Following this incubation, the cells are washed four times with HBHA buffer and then fixed with 60% acetone/3% formaldehyde/20 mM HEPES (pH 7.0) for 30 sec. […]

B1: rat Ret/IgG fusion protein (Fc fusion)
chain: EAPLGLYFSRDAYWERLYVDQPAGTPLLYVHALRDAPGEVPSFRLGQYLYGVYRTRLHENDWIHIDAGTGLLYLNQSLDHSSWEQLSIRNGGFPLLTVFLQVFLGSTAQREGECHWPGCARVYFSFINDTFPNCSSFKARDLCTPETGVSFRIRENRPPGTFYQFRMLPVQFLCPNISVKYKLLEGDGLPFRCDPDCLEVSTRWALDRELQEKYVLEAECAVAGPGANKEKVAVSFPVTVYDEDDSPPTFSGGVGTASAVVEFKRKEGTVVATLQVFDADVVPASGELVRRYTSTLLSGDSWAQQTFRVEHTPNETLVQSNNNSVRATMHNYKLVLNRSLSISESRVLQLVVLVNDSDFQGPGSGVLFLHFNVSVLPVTLNLPMAYSFPVNRRARRYAQIGKVCVENCQEFSGVSIQYKLQPSSTNCSALGVVTSTEDTSGTLYVNDTEALRRPECTELQYTVVATDRQTRRQTQASLVVTVEGTYIAEEVGCPKSCAVNKRRPECEECGGLGSPTGRCEWRQGDGKGITRNFSTCSPSTRTCPDGHCDALESRDINICPQDCLRGPIVGGHERGERQGIKAGYGICNCFPDEKKCFCEPEDSQGPLCDALCRT
notes: Made in COS or CHO cells and purified on Protein A; also called Ret/Ig fusion protein; soluble Ret/IgG fusion protein; not shown: Fc portion of human IgG1 (part of the Fc domain, 700 bp Sal1 fragment from plasmid 2-4, originally from pSAB144)
In the case of B1, the binding result was “binds”.

For the origin of these results see patent US6861509 (Biogen, dated 2005).
